Values of other authors in US20250319161A1, “IMPROVED METHODS OF TREATING DISEASES RESULTING FROM A MALADAPTED STRESS RESPONSE” (priority 2021, published 2025).
Ends that are not written are not given here.

What was measured:
CRFR2 [1] = molecular target: T1, CRFR2 (Homo sapiens, UniProt Q13324); conditions: read-out: inhibitory constant at CRFR2
T1 sequence (Q13324 1-411): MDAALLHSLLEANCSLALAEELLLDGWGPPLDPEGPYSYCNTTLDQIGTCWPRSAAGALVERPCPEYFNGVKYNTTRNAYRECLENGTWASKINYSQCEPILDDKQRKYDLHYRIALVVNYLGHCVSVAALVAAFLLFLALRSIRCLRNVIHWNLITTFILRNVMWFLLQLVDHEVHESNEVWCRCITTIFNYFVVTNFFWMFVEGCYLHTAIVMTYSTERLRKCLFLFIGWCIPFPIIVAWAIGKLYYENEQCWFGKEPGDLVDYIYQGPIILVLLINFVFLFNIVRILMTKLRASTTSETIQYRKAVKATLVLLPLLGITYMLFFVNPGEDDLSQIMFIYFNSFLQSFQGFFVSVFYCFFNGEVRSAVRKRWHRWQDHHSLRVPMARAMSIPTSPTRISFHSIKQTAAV

CRFR2 [2] = molecular target: T1, CRFR2; conditions: in vitro
CRFR2 [3] = molecular target: T1, CRFR2; conditions: in vitro; remark: listed apart in the source

Substance | Ki (CRFR2 [1]) [nM] | concentration achieving maximal CRFR2 endocytosis (CRFR2 [2]) [nmol] | EC50 (CRFR2 [3]) [nM]
endogenous urocortin 1, DNPSLSIDLTFHLLRTLLELARTQSQRERAEQNRIIFDSV-NH2 (DNPSLSIDLTFHLLRTLLELARTQSQRERAEQNRIIFDSV-NH2; UniProt P55089 83-122, looked up) [UCN1] | 0.4 |  | 
endogenous urocortin 2, IVLSLDVPIG LLQILLEQAR ARAARBQATT NARILARV-NH2 [UCN2] | 1.1 | 100 | 4.3
